One substance from PMC9574498 can be followed below.

This test has as its target human P2X7R ballast domain (P2X7BD, residues 395–595) (human) (UniProt Q99572). Kind of test: cross-linking.

Values joined by “and” are separate entries in the source; they are usually repeats but may differ in a detail not shown here. Identical values can stand only once.

Chain of human P2X7R ballast domain (P2X7BD, residues 395–595) (human) (Q99572 395-595): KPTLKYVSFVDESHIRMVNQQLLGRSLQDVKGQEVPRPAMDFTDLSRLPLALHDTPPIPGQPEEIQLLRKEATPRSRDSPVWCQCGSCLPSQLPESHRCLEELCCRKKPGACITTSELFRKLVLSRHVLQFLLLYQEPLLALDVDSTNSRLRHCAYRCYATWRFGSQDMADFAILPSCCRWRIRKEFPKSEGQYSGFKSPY

Consider “human calmodulin (Ca^2+-CaM; apo-CaM in EDTA) (from UniProt P0DP23 1-149) (natural protein)”, for which the stoichiometry N (Ca^2+-CaM per P2X7BD) was 1 and 2.
